Biological target: T1, streptavidin/gold (10 nm-diameter; Electron Microscopy Sciences) (UniProt P22629 37-163, limits assumed, conjugated to 10 nm gold particles)
T1 construct: Detection reagent; also called avidin-conjugated gold particles; gold particles
Assay: immunogold electron microscopy control, fibrils with recruited AL1κ and no mAb added
Text: Immunogold electron microscopy was used to investigate the binding sites of AL1κ LC on rVλ6Wil fibrils (FIG. 6A and FIG. 6B). The distribution of AL1κ LC (evidenced by the presence of anti-κ LC mAb-bound 10 nm-diameter gold particles; arrows) was generally at the ends of the rVλ6Wil fibrils and less commonly seen along the length of the fibril (arrowheads; FIG. 6A). A sample of fibrils with AL1κ LC recruited but with no mAb added served as a non-specific binding control. No gold particles were observed associated with the majority of fibrils in this preparation (FIG. 6B).
Twenty-five μg of rVλ6Wil fibrils were mixed with 1 μg […] in 200 μL of tris-buffered saline (TBS) with 0.05% tween-20 (TBST) in a 1.5 mL-volume microcentrifuge tube. The sample was rotated at RT for 24 h before being centrifuged at 20,000×g for 8 min, and the supernatant was discarded. The pellet was washed in 400 μL TBST twice by centrifugation, before the sample was split into two 200 μL-volume samples in TBST. To one sample, 10 μg each of two biotinylated anti-κ mAbs (αLKC8 and 14-6E4) were added; no antibodies were added to the other sample. Both samples were rotated 2 h at RT prior to two washes by centrifugation, as before. The pellets were resuspended in […] TBST with addition of a 1:4 dilution of streptavidin/gold stock solution ([…]; Electron Microscopy Sciences, Hatfield, Pa.). […]

T1 sequence (P22629 37-163 limits assumed): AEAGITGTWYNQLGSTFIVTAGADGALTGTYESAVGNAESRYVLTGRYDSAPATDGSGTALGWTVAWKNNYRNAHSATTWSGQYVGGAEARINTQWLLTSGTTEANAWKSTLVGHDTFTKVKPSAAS

B1: synthetic rVλ6Wil fibrils (other)
VL: NFLLTQPHSVSESPGKTVTISCTRSSGSIANNYVHWYQQRPGSSPTTVIFEDDHRPSGVPDRFSGSVDTSSNSASLTISGLKTEDEADYYCQSYDHNNQVFGGGTKLTVLG
notes: Amyloid fibril polymer of rVλ6Wil monomers; Used in suspension (pulldown), coupled to a CM-5 chip (SPR) or dried onto microplate wells; also called rVλ6Wil synthetic amyloid fibrils; rVλ6Wil fibril seed
Q: Does B1 bind?
A: Result: no binding

Reference: patent publication US20190041390A1 (UNIVERSITY OF TENNESSEE RESEARCH FOUNDATION, published 2019)
